Measured values taken from patent US20130177979A1 (UNIVERSITY OF CENTRAL FLORIDA RESEARCH FOUNDATION, published 2013).
Where no end group is shown, it is not given here. [ ]: non-standard residue; d: D form. pY = N[C@@H](Cc1ccc(OP(=O)(O)O)cc1)C(=O)O

T1: PpYLKTK (Stat3-derived pTyr705 peptide)
T1 construct: SPR analyte; also called pY705Stat3; Stat3 pY705 peptide
T1 peptide: P[pY]LKTK

T2: GpYIKTE (Stat1 pY701 peptide)
T2 construct: SPR analyte; also called pY701Stat1; Stat1 phosphopeptide
T2 peptide: G[pY]IKTE

T3: GpYVKPQ (pTyr peptide of Stat5)
T3 construct: SPR analyte; also called pY694Stat5; pY695Stat5
T3 peptide: G[pY]VKPQ

T4: PEpYINQS (pY1068 peptide of EGFR)
T4 construct: SPR analyte; also called pY1068EGFR
T4 peptide: PE[pY]INQS


How the values were obtained:
[1] = target: T1, PpYLKTK (Stat3-derived pTyr705 peptide); experiment: SPR (SensiQ), His-tagged protein immobilised on HisCap chip, pTyr peptide as analyte
[2] = target: T2, GpYIKTE (Stat1 pY701 peptide); experiment: as above
[3] = target: T3, GpYVKPQ (pTyr peptide of Stat5); experiment: as above
[4] = target: T4, PEpYINQS (pY1068 peptide of EGFR); experiment: as above
[5] = target: T3, GpYVKPQ (pTyr peptide of Stat5); experiment: SPR (SensiQ); His-tagged full-length Stat3 immobilised on a HisCap sensor chip, GpYVKPQ passed over as analyte; sensorgram shown at 100 µM
[6] = target: T5, human epidermal growth factor receptor (EGFR) on cells (human, UniProt P00533 25-1210); experiment: Fluorescence and confocal microscopy, fluorescently-labeled SPI and anti-EGFR immunostaining in MDA-MB-231 and NIH3T3/hEGFR cells
T5 construct: whole, on cells; SPI is said to associate with the pTyr motifs of the receptor's cytoplasmic tail inside cells; also called hEGFR; EGF receptor
From the text: Fluorescence imaging and immunofluorescence with laser-scanning confocal microscopy.

Binder | Kd [1] [nM] | Kd [2] [µM] | Kd [3] [mM] | Kd [4] [nM] | Kd [5] [mM] | binding result [6]
His-tagged Stat3 (full-length Stat3) (other) MAQWNQLQQLDTRYLKQLHQLYSDTFPMELRQFLAPWIESQDWAYAASKESHATLVFHNLLGEIDQQYSRFLQESNVLYQHNLRRIKQFLQSRYLEKPMEIARIVARCLWEESRLLQTAATAAQQGGQANHPTAAVVTEKQQMLEQHLQDVRKRVQDLEQKMKVVENLQDDFDFNYKTLKSQGDMQDLNGNNQSVTRQKMQQLEQMLTALDQMRRSIVSELAGLLSAMEYVQKTLTDEELADWKRRQQIACIGGPPNICLDRLENWITSLAESQLQTRQQIKKLEELQQKVSYKGDPIVQHRPMLEERIVELFRNLMKSAFVVERQPCMPMHPDRPLVIKTGVQFTTKVRLLVKFPELNYQLKIKVCIDKDSGDVAALRGSRKFNILGTNTKVMNMEESNNGSLSAEFKHLTLREQRCGNGGRANCDASLIVTEELHLITFETEVYHQGLKIDLETHSLPVVVISNICQMPNAWASILWYNMLTNNPKNVNFFTKPPIGTWDQVAEVLSWQFSSTTKRGLSIEQLTTLAEKLLGPGVNYSGCQITWAKFCKENMAGKGFSFWVWLDNIIDLVKKYILALWNEGYIMGFISKERERAILSTKPPGTFLLRFSESSKEGGVTFTWVEKDISGKTQIQSVEPYTKQQLNNMSFAEIIMGYKIMDATNILVSPLVYLYPDIPKEEAFGKYCRPESQEHPEADPGSAAPYLKTKFICVTPTTCSNTIDLPMSPRTLDSLMQFGNNGEGAEPSAGGQFESLTFDMDLTSECATSPM | 900 | 4.4 | 1.2 | 600 | 1.14 | –
FISKERERAILSTKPPGTFLLRFSESSK (5-carboxyfluorescein attached to the amino-terminus, Used for cell uptake and colocalisation microscopy; also called fluorescently-labeled SPI) [5-carboxyfluorescein-labeled SPI] | – | – | – | – | – | binds
